Experiments:
Assay in all cases: Kinase Profiling Assay
Format in all cases: biochemical
Conditions in all cases: 100 μM
[1] = biological target: T1, DRAK1 (h) (Homo sapiens, UniProt Q9UEE5)
T1 construct: purchased Millipore
T1 sequence (Q9UEE5 1-414): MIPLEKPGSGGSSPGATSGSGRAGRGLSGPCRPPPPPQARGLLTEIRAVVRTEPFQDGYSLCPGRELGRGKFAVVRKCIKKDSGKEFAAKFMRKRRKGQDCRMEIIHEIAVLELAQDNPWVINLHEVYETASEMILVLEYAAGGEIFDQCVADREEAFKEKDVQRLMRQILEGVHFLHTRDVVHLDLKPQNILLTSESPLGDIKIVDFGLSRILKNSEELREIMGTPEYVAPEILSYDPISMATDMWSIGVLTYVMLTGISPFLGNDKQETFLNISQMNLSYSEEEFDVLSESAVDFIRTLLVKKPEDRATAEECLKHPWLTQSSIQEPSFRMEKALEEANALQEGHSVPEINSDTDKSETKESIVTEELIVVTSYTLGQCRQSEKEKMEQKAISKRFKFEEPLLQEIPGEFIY
Method in brief: (§1)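 Duplicate wells; [radiolabeled] ATP phosphate onto cationic substrate; filter capture (negatively charged membrane); scintillation count; % of 100% activity control. Selectivity screen of MK2 peptide inhibitors, 266 human kinases.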

[2] = biological target: T2, DYRK2 (h) (Homo sapiens, UniProt Q92630)
T2 construct: purchased Millipore
T2 sequence (Q92630 1-601): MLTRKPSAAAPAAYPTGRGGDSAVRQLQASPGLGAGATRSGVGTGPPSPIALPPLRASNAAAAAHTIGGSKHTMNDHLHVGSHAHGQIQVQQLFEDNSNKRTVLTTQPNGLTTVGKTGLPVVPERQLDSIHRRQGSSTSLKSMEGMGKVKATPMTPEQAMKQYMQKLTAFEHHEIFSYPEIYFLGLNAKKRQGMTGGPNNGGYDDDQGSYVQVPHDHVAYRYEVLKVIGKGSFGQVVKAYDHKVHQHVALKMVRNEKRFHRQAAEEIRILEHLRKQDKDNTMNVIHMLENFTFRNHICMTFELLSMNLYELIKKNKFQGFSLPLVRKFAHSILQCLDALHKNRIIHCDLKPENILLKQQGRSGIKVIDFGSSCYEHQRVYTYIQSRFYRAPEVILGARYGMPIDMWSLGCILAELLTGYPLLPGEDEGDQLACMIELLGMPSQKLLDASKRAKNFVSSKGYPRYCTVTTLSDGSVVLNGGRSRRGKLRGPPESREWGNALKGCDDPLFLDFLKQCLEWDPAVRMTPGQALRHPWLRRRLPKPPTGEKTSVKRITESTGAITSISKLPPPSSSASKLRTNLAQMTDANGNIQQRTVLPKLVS
Method in brief: as §1

[3] = biological target: T3, GSK3α (h) (Homo sapiens, UniProt P49840)
T3 construct: purchased Millipore
Method in brief: as §1

[4] = biological target: T4, NEK3 (h) (Homo sapiens, UniProt P51956)
T4 construct: purchased Millipore
T4 sequence (P51956 1-506): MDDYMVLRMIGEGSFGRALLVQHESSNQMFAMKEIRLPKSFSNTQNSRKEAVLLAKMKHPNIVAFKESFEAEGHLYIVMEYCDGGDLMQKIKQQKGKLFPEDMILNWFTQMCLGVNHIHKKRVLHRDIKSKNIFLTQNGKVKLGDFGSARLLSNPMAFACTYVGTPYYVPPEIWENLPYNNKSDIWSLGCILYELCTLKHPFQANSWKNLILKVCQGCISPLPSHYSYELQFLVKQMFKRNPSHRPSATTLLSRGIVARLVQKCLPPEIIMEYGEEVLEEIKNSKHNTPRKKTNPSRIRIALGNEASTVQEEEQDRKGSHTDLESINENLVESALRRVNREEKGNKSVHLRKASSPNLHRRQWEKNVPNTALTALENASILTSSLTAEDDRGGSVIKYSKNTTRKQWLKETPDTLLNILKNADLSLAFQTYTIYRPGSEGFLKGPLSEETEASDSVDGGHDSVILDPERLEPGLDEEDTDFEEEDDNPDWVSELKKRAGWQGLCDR
Method in brief: as §1

[5] = biological target: T5, TAO1 (h) (Homo sapiens, UniProt Q7L7X3)
T5 sequence (Q7L7X3 1-1001): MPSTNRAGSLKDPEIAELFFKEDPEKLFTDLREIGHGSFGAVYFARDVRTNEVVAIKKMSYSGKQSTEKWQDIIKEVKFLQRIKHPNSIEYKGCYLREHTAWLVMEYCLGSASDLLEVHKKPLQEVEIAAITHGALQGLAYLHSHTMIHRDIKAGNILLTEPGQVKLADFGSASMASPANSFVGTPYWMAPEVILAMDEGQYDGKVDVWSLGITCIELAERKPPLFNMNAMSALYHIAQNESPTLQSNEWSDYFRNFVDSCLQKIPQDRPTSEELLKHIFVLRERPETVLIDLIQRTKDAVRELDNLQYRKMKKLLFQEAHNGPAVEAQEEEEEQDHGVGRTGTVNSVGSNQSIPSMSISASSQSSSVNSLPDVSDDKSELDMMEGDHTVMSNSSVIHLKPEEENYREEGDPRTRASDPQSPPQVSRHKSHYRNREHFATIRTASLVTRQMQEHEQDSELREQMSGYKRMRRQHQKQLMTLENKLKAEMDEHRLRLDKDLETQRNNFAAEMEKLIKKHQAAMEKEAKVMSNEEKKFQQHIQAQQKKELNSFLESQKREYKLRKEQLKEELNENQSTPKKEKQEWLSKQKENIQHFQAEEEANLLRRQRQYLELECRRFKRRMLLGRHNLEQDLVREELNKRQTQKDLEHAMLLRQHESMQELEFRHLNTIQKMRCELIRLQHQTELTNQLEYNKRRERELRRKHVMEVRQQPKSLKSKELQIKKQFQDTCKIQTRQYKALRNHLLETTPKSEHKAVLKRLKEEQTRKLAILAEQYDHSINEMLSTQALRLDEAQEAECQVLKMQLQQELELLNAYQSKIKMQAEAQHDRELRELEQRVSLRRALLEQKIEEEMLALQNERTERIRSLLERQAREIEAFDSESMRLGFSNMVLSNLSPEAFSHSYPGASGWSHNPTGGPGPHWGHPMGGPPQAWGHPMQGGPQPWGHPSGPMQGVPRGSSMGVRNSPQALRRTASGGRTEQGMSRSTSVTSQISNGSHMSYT
Method in brief: as §1

T3 sequence (P49840 whole entry): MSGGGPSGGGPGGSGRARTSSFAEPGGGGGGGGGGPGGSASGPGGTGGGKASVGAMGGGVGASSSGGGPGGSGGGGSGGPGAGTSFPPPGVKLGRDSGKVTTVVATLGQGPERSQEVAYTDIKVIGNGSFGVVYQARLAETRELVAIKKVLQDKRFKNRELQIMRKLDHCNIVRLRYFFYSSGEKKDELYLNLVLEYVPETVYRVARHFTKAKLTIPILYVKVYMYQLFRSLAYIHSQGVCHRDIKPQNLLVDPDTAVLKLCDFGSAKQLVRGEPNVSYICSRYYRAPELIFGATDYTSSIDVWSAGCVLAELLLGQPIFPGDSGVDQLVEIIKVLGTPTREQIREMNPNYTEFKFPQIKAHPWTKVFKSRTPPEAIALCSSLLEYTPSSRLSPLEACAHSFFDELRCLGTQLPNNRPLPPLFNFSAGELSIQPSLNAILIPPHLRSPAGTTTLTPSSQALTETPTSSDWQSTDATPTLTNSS

| Sequence | % activity [1] [%] | % activity [2] [%] | % activity [3] [%] | % activity [4] [%] | % activity [5] [%] |
| --- | --- | --- | --- | --- | --- |
| FAKLAARLYRKALARQLGVAA [MMI-0300] | 14 | 155 | 157 | 92 | 82 |
| HRRIKAWLKKIKALARQLGVAA (Mammalian) [MMI-0500] | 8 | 127 | 175 | 20 | 24 |
| KAFAKLAARLYRKALARQLGVAA [MMI-0400] | 14 | 195 | 164 | 85 | 73 |
| YARAAARQARAKALNRQLGVA (Mammalian) [MMI-0200] | 34 | 142 | – | 100 | – |

— US10500249B2, “Compositions and methods for preventing or treating diseases, conditions, or processes characterized by aberrant fibroblast proliferation and extracellular matrix deposition” (MOERAE MATRIX, INC., priority 2014, dated 2019)
